Read-outs that look alike come from different tables or passages of the source.
Assays:
Test in all cases: SPR
[1] = molecular target: human ApoER2 ECD-BAS H96K/H99K (LA2 mutant) (human)
[2] = molecular target: human ApoER2 ECD-BAS E107Q (LA2 mutant) (human)
[3] = molecular target: human ApoER2 ECD-BAS H96K/H99K (LA2 mutant) (human); remark: listed apart in the source
[4] = molecular target: human ApoER2 ECD-BAS D68N (LA1 mutant) (human)
[5] = molecular target: human ApoER2 ECD-BAS H96A/H99A (LA2 mutant) (human)

Kd [1]: 0.045 µM | Kd [2]: 0.038 µM | Kd [3]: 0.49 µM | Kd [4]: > 2.8 µM | Kd [5]: 0.12 µM
B1: mouse reelin R56 fragment (fifth and sixth reelin repeats), wild type, for SPR (domain or fragment)
chain: DGNNLNNPVLLLDTFDFGPREDNWFFYPGGNIGLYCPYSSKGAPEEDSAMVFVSNEVGEHSITTRDLSVNENTIIQFEINVGCSTDSSSADPVRLEFSRDFGATWHLLLPLCYHSSSLVSSLCSTEHHPSSTYYAGTTQGWRREVVHFGKLHLCGSVRFRWYQGFYPAGSQPVTWAIDNVYIGPQCEEMCYGHGSCINGTKCICDPGYSGPTCKISTKNPDFLKDDFEGQLESDRFLLMSGGKPSRKCGILSSGNNLFFNEDGLRMLVTRDLDLSHARFVQFFMRLGCGKGVPDPRSQPVLLQYSLNGGLSWSLLQEFLFSNSSNVGRYIALEMPLKARSGSTRLRWWQPSENGHFYSPWVIDQILIGGNISGNTVLEDDFSTLDSRKWLLHPGGTKMPVCGSTGDALVFIEKASTRYVVTTDIAVNEDSFLQIDFAASCSVTDSCYAIELEYSVDLGLSWHPLVRDCLPTNVECSRYHLQRILVSDTFNKWTRITLPLPSYTRSQATRFRWHQPAPFDKQQTWAIDNVYIGDGCLDMCSGHGRCVQGSCVCDEQWGGLYCDEPETSLPTQLKDNFNRAPSNQNWLTVSGGKLSTVCGAVASGLALHFSGGCSRLLVTVDLNLTNAEFIQFYFMYGCLITPSNRNQGVLLEYSVNGGITWNLLMEIFYDQYSKPGFVNILLPPDAKEIATRFRWWQPRHDGLDQNDWAIDNVLIS

Source: article PMC5452030
